The record followed here is article PMC9348789 (2022).

To fix the notation:
B1: CCL5 (ligand)
chain: SPYSSDTTPCCFAYIARPLPRAHIKEYFYTSGKCSNPAVVFVTRKNRQVCANPEKKWVREYINSLEMS
B2: CXCL14 (ligand)
chain: SKCKCSRKGPKIRYSDVKKLEMKPKYPHCEEKMVIITTKSVSRYRGQEHCLHPKLQSTKRFIKWYNAWNEKRRVYEE
B3: CCL26 (ligand)
chain: TRGSDISKTCCFQYSHKPLPWTWVRSYEFTSNSCSQRAVIFTTKRGKKVCTHPRKKWVQKYISLLKTPKQL
B4: CCL21 (ligand)
chain: SDGGAQDCCLKYSQRKIPAKVVRSYRKQEPSLGCSIPAILFLPRKRSQAELCADPKELWVQQLMQHLDKTPSPQKPAQGCRKDRGASKTGKKGKGSKGCKRTERSQTPKGP
B5: CXCL11 (ligand)
chain: FPMFKRGRCLCIGPGVKAVKVADIEKASIMYPSNNCDKIEVIITLKENKGQRCLNPKSKQARLIIKKVERKNF
B6: CXCL4 (ligand)
chain: EAEEDGDLQCLCVKTTSQVRPRHITSLEVIKAGPHCPTAQLIATLKNGRKICLDLQAPLYKKIIKKLLES
B7: CCL28 (ligand)
chain: SEAILPIASSCCTEVSHHISRRLLERVNMCRIQRADGDCDLAAVILHVKRRRICVSPHNHTVKQWMKVQAAKKNGKGNVCHRKKHHGKRNSNRAHQGKHETYGHKTPY
B8: CXCL9 (ligand)
chain: TPVVRKGRCSCISTNQGTIHLQSLKDLKQFAPSPSCEKIEIIATLKNGVQTCLNPDSADVKELIKKWEKQVSQKKKQKNGKKHQKKKVLKVRKSQRSRQKKTT
B9: CCL11 (ligand)
chain: not shown

The first experiment addresses T1, SARS-CoV-2 nucleocapsid protein (N) (SARS-CoV-2, UniProt P0DTC9 1-419). Put plainly: BLI. A general note: Biolayer interferometry detects binding as a change in optical thickness at a sensor tip.
What is called Kd is the concentration at which binding is half-saturated. A higher Kd goes with lower affinity. For the molecule B1, the affinity, expressed as Kd, was 0.01 µM.
Turning to B2, the Kd worked out at 0.045 µM.
Still for that read-out and setting: for B3 the value was 0.026 µM.
The same measure, in the same setting: for B4 the value was 0.014 µM; for B5, 0.13 µM.
Same read-out and setting: the value for B6 was 0.17 µM.
Turning to B7, the Kd is 0.022 µM.
On the same count and under the same terms, for B8 the value was 0.012 µM; for B9, 0.072 µM.

In the next experiment the target is T1, SARS-CoV-2 nucleocapsid protein (N). The experiment is described as follows: BLI. The source holds these as a separate data set.
Broadly, the koff is the first-order rate constant of dissociation. A low value points to slow dissociation. The molecule B1 gave a koff of 0.00019 s⁻¹.
Same read-out and setting: the value for B2 was 0.0019 s⁻¹; that for B3 was 0.00093 s⁻¹.
Same read-out and setting: the value for B4 was 0.0014 s⁻¹; that for B5 was 0.0033 s⁻¹; that for B6 was 0.00053 s⁻¹.
On the same count and under the same terms, for B7 the value was 0.00087 s⁻¹; for B8, 0.00085 s⁻¹; for B9, 0.0045 s⁻¹.
